{"source": "paper PMC11779939", "about": "“Identification of novel 7-hydroxycoumarin derivatives as ELOC binders with potential to modulate CRL2 complex formation” (Scientific Reports, 2025)", "molecular_target": "VHL-ELOB-ELOC (VBC) complex (UniProt P40337 54-213; Q15370 1-104; Q15369 17-112)", "experiment": "fluorescence polarisation; competitive FP for fragment screening, 384-well plates; 0.5 uM VBC, 20 nM FITC peptide, 10 mM HEPES pH 7.5, 0.0025% Tween 20, 50 mM NaCl, 1 mM EDTA, 1 mM DTT; small-molecule competitors (VH032 as reference)", "settings": "both partners purified", "note": "Non-standard residues stand in square brackets, D forms with d. No end group written: not given here. *: point of attachment. FITC = O=C1OC2(c3ccc(O)cc3Oc3cc(O)ccc32)c2ccc(NC(=S)*)cc21; Hyp = O=C(O)[C@@H]1C[C@@H](O)CN1", "data": [{"binder": "{FITC}-LEALA[Hyp]YIPA", "note": "[FITC-LEALA-HyP-YIPA peptide]", "values": [{"measurement": "binding result", "result": "binds"}]}]}
